Data taken from the DeepSol protein solubility set.

Assay: soluble on expression in E. coli; label from the status in PepcDB or PDB records

Row | Sequence | soluble on expression in E. coli
1 | MGSDKIHHHHHHMLTTGTTRITGDRKLNDLIGHLIDPQLVEVEAAPQIKAMATSRLNFKMQKQTQTNWCWAAVSASVGNFYRTGSWTQCGVASASLDRNCCNQPGPCNIYGYLDSALRITRSYNGMNRGSLQMSAIRNQIKKGRPIGLRCAWYGGGAHFLVIYGTDGDYLLIADSIYGYSTRALNSFPRLYKSGGNWTDTYFTVKK | not soluble
2 | MGSDKIHHHHHHMPAVVVREYARLTTAPLPQNTLDAAHISPSAFSWLVKLGQQFKANGLQLLELDDQQWLRLDNYVGVLESPCGQVIEILPKHRVEGECINSARKLLRKLILNALQLKQRETEYTDIERFDAPLTEWLMAQFLTELDSVIKRGMRFDYQRIEESQRFLRGQLDVVKQLRQPAGREHIFNIRHDIFTADRAENRLLKTALLRVCKTTQDNDNWRLAHELQSLLHELPTSTDIQADFTTWRSDRLMAHYQAIKPWCEFVLSQHVPLAVQGLWQGISMLFPMERLFESYVAAELDAAVQRMLGVKGEVRTQLASKYLCKHQGKDFFQLQPDLQLKLGADHWILDTKWKLLDASDKENKYGLSQQDFYQLFAYGQTYLGGDGTLVLIYPAWHKFPAGTYLGEFRFNDKLTLKVLPFDLDAQNAAKDLISKLQQGVKQSLPS | not soluble
3 | MKKINAIILLSSLTSASVFAGAYVENREAYNLASDQGEVMLRVGYNFDMGAGIMLTNTYNFQREDELKHGYNEIEGWYPLFKPTDKLTIQPGGLINDKSIGSGGAVYLDVNYKFVPWFNLTVRNRYNHNNYSSTDLSGELDNNDTYEIGTYWNFKITDKFSYTFEPHYFMRVNDFNSSNGKDHHWEITNTFRYRINEHWLPYFELRWLDRNVEPYHREQNQIRIGTKYFF | soluble
4 | MSLDDERTQVLLKRDSEVFLHQAMSTPCLDTLDAAEGIYIQDATGKKYMDFHGNNVHQLGYGHPHVIKRVQEQIAKLPFSPRRFTNETAIECAEKLTQICGGELNRVLFAPGGTSAVGMALKLARHITGNYKVVSLWDSFHGASLDAISVGGEACFRQGMGPLMAGVERIPPAVSYRGAFPVADGSDVHYADYLEYVIEKEGGVGAFIAEAVRNTDVQVPSKAYWKRIREICDKHNVMLIIDDIPNGMGRSGEWFTYQAYDIEPDMLCIGKGLGGGLVPIAAMVTKDKYNTAEQISMGHYTHEKSPIGCAAALATMEAIEQDGLLDKVKADSQFMREKLLEMKAKYPVIGDVRGIGMLWGIELVTDHESKARAYDEAEAVLYQCLNNGVSFKVSQGNVIQLSPPLIITREQLTEALAIFEEAIAKVCKEGHHHHHH | not soluble
5 | TAYLGPAGSWTHQACLDLYGADGLVPLSREALFAAYADGKVERACVPVATSVVGLTPYMEDVLALPRVVVVAEYPKMLGYSLLARPGTRREDIKEVHAHPVAFEEVRPWLEREMPGARRVPAASGGAAAQAVAASATQDKASFGPRVGASVYQLVSLADGIEEGPHNVTRWWVLGRDMP | not soluble
6 | MSPMRIGLVCIRGSVPAFENFGFLPTDIVGSNGLVNGSRAHRVLDGIIIPGGSIVESGSLSPELAFEIRRMASDGKFVLGICSGFQALAERTDIGRKSPCPVYREGLGLLNVTFHPMISNDRVEATITGESFLTSGMSGERITGFHCHTYGEIRGDAPEIMKSRIVRADYHERPGEILSGVCSDDGNVAGTMVHGCLDENQTLVSNILKFLDADETARERILEANRKLREALRSELGISTGIRVMDRGGTRGTPPAIMIASTGSDSGKTFILTGLAGALRRRGLRVGVIKVGPDVRDIVPALYLIKEPMEEHSSIRIGRLGWMELRDVLESVRGRYDIILIEGVMSILTGLLNDITPYSGAEIALAAGIPLIMVAGCSKGGIESAVVDLDAHISVLEGLGLEVSCGILNRVYDMDIFERASGGRYLAIPRVEMSERGGTPEVEIKLEDFCLKAMETVEEHLDVDTLISFAKKPEFRGYMGPEEIKKVFSPLEHHHHHH | not soluble
7 | MNRIKSTLTALLLAGSFQASAADQTILNSSYDIARELFVAYNPVFAEHWQQKTGKTVEIKQSHAGSSAQARSILQGLAADVVTFNQVTDVQILHDKGKLIPANWQTLLPNASSPYYSTTAFLVRKGNPKNIQDWSDLVRDDVKSVFPNPKTSGNARYTYLAALGFAQKQFGQDNQVQQDEFLKKFLANVAVFDTGGRGATTSFVERGIGDVLITFESEVNNIRQQYGADDYQVVVPKTSILAEFPVAVVEKVAKRNGTYDVATEYVSYLYSEPAQRLLAEFNYRVHDAKVQAEFAERFPAVELLTVEGIAGGWEQAMQTQFANGAKLDQLLRR | not soluble
8 | MKVLFVYAGMHPAHEPFVEAVKADVYPAYHKDVNGFVKFVEGLKMAREYPDYDVYILEGGMPMFPMYLRKKLFRKNGFVVGLLADETFINLVERQPHYSTAETLIHRISAKVLDAAIAVSPFVKEYAEKIIDVPIEVVRPAIPKDSYEKLGKVKPNLESNVIVSVGQPRFSIGMDVLVEQFRIAKKQIPDLELWIVGKGHPKEYERVEGVKVLGYVEDLSEVFEEASLFVHAGRCSAYPVATLEAMRAGLPVVVSTMTGTKEIVERVEEQVKREFGLNYDGNKFIQPLNRIFEGIVEYFKLDSEVRRIMSELYKKESEEFEPGKRGREFKEKFKKLLANFNNKEVP | not soluble
9 | MGSDKIHHHHHHMMEMVNNSFRHGILFQEGKMEEARFIERPNRFTVRCALGSEILDAYLPNPGRLWELLLPDSVLYVVRRDVGQDRKLRGVVVAVEREGRPVMLHTLACNDIVADLLRQKRLPGFEGMNILQREIARGRSRFDFLLEQNGAPRLLEVKSCTLFGRCIAMFPDAVTLRGRRHLLELAELSRQGTPAHVLFLVHWPHADFFLPDYHTDFDFASTFLAVRDAVRFSALAVDWQPDMTPGAEIRELYIPWELLEREVQDSGCYLLVLHLPRNENVIPGGSTLLSLRKGYYVTVVSIRSGLTRHLQKSSRRRPGSENSRKSTVPDNLKAAADKILAIPIRTTEPLEAELNDALSRIADWSVPGFEARGDAGLAPVFGMAGPPLQRRAFVELLLDFRINRLEKFLARGAGSSAGPPVGNPSLEKIQ | not soluble
10 | AIPAPTDLKFTQVTPTSLSAQWTPPNVQLTGYRVRVTPKEKTGPMKEINLAPDSSSVVVSGLMVATKYEVSVYALKDTLTSRPAQGVVTTLENVSPPRRARVTDATETTITISWRTKTETITGFQVDAVPANGQTPIQRTIKPDVRSYTITGLQPGTDYKIYLYTLNDNARSSPVVIDASTAIDAPSNLRFLATTPNSLLVSWQPPRARITGYIIKYEKPGSPPREVVPRPRPGVTEATITGLEPGTEYTIYVIALKNNQKSEPLIGRKKT | soluble
11 | MMSLVIAFISCSKSDEDKVIKEENPKITSDTFSAVIKDGFTGENGEDLILYKNLKNIVVGDYIPYDITIKDEDSANTKYILTPTRIGEKNHQYFQIDYDVYLDNDKGEKVRVNAITFDKIGKHRFYIKPLVPGTFKLSFVLQREQNGQKVQDIKFPTLNFNVVKITVYKTQIFIGLYEVRFYIEDGENETDIYLSPDPSVKQTFVSKYNDMTYTGDFNVKEFCKVGYYSSTIKTITSITIIQKREGEEEYRIEYYNIPIP | not soluble
12 | MGSDKIHHHHHHMSANRLPVTVVTGFLGSGKTTLLRHLLREGNQRLAVVVNEFGTVGLDGDLLKNCGLCPDDEVDERIVELNNGCLCCTVQEDFLPAMEALLLRSNQLDGIIIETSGLALPKPLLQALNWPAIRNKVFINGVVTLVDGYALSNGSPVSDLKSINEQMTNDNSIDHITPIDELFRDQLISADLVLVSRSDLLSAKDFLFVEEEVKKRGNSNANVLPISNGIIEPSVILGLCKEQNNIYRLDQNNQNQNQNQNHDHDHDHDHDHDHVDVISDHLRMETPIDQDVLREMFLRLVPEYQILRVKGKCWIEGKALPLQIQMVGPRFNSWFEAANENAWQPRQSGIDIVFLSLREGVKEAVVNSLCISTRIK | not soluble
13 | MGSDKIHHHHHHMFQSDLKLIVFQHGFFGERFVANLMNYPNSCPSYGACGIDGCTQCKEGLYNFSKNIIAVFSMPDPTTMPDFIENAEDFLPKVIPEADIAVAINLHPDVLAVMPEKLKGKVKALIVPVEEPRWCSPGLAKQIREKCDELGLEFAAPKPFCNLRPSEEHPTINRMIEEMRIGYPEFEIELLEDGKAYVRISRSQPCGCAYYIGVKLRGFDFSEVKEGKMRELWNVVAEAHHSYPCTASMERDNEYNETLLHVGGYIARHAVNRALGYEGDEDIPEHIKHIVL | not soluble
14 | MSFDKKVTIAHLSDLHFASKNDRYLTARLDTMLGEFVRRKYDHLVMTGDLIDTASPALWTIIRDALVRHGLFDWTKTTVIPGNHDLIDLEEEMRFYNALNPDDRSRQHRVDDRLRQFNAIFRPLITDNGDALAGVPFVKVMRLGGISLSFVAVNTVDPWSGLDNPAGARGSVSPETLRALQEPGVRQVLDDTFIIGLCHHAYKVYGTGALVDQVFDWTMEFKNRDEYLKAMKNLGVRLVLHGHFHRFQVYQANGINFINGGSFRYSPERYGELVINADGRWSHRFVNLALKKLEHHHHHH | not soluble
15 | MGSDKIHHHHHHMKMLVGKIPSELLAKILEKLKPGDKVIVGPKVGIDATAIDFGDYVLVASTDPITGTEEKIGFYAVNINANDVATFGARPKWFLVTILLPEGSEFNDVITIMDEVREVAEGMGISIVGGHTEVTPGLKKPIVVGTMLGEVEKENLVVPNPRPGDAIILTKGAGIEGTSIIAHEREEELKGVFGSNFVERAKAFINEISIVREALLSREFATAMHDPTEGGIANGLHEMADINGLGFRIFANKVIIREETRKICHFYDLDPLALISSGALLISTPRDHAKFLIERLLSHGIQASIIGEFLAEKKRVIIENGAERPLKRPESDELWKVV | not soluble
16 | MIGSGSQRKIGIVIKALLDQAEELDIINKNKIRCTDIPRQGKAERRYLTIRGIDRLLAAAIPMNEVALMRNVLLFTGLRPREAKGLKVKDLDPMRGRLSIRRDVDDLGNPDETKTRNHRGVPIGGDLLFDLDDQAEGKQPHDWLLTDETGHV | not soluble
17 | MDFSGKNVWVTGAGKGIGYATALAFVEAGAKVTGFDQAFTQEQYPFATEVMDVADAAQVAQVCQRLLAETERLDALVNAAGILRMGATDQLSKEDWQQTFAVNVGGAFNLFQQTMNQFRRQRGGAIVTVASDAAHTPRIGMSAYGASKAALKSLALSVGLELAGSGVRCNVVSPGSTDTDMQRTLWVSDDAEEQRIRGFGEQFKLGIPLGKIARPQEIANTILFLASDLASHITLQDIVVDGGSTLGA | soluble
18 | MDNLLAQKKPINILLLGTDTGAMGRSWKGRTDTIMMMAINPKTNSTSIVSIPRDSNAIFPDFPQYGVTKINSAYTLGGVGETVKTLDKYYSVPIDGYIMINMGGLKKAIDQVGGIDVTSPLTFDNMGYHFQEGKTYHMDGKKALAFAQLRHGDPRQDYGRQDRDRRVVMALLKKSISPTTLLNTKFLNSISSEMQTDLTMNQMYKIGMDYRHATDNLSQDHAQGVSKQTQNPKFGTMEIEVVSRQERQRVSDKLRAALGLPKVRVAANSASYVMNQLEHHHHHH | soluble
19 | MLEDYAISLEEVNFNDFIVVDVRELDEYEELHLPNATLISVNDQEKLADFLSQHKDKKVLLHCRAGRRALDAAKSMHELGYTPYYLEGNVYDFEKYGFRMVYDDTCDKKN | soluble
20 | MSRTAVREAVKTLTAKGMVLPRPRIGTRVMPQSNWNFLDQELLTWWITEENFHQVIDHFLVMRICLEPQACLLAATVGTAEQKAHLNTLMAEMAALKENFRRERWIEVDMAWHEHIYEMSANPFLTSFASLFHSVYHTYFTSITSDTVIKLDLHQAIVDAIIQSDGDAAFKACQALLRSPDK | not soluble
